Molecular target: diphtheria toxin (UniProt P00588 33-567)
Assay: cell-based or functional assay

diphtheria toxin, sequence (P00588 33-567 limits assumed): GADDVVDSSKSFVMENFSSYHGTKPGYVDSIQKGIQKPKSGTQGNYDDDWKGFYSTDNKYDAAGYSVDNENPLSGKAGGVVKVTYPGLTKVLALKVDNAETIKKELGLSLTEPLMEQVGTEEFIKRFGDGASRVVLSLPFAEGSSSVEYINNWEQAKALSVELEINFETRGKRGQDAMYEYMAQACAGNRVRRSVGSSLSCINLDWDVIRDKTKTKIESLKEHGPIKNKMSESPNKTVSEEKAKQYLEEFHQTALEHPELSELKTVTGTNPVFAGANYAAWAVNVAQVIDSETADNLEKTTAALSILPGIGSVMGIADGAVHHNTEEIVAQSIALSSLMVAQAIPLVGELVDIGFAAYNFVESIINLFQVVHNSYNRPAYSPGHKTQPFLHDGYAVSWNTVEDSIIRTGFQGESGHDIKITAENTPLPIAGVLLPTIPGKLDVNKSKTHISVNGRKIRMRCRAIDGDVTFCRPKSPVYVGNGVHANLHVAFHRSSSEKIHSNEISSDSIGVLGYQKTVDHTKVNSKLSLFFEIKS

| Binder | EC50 for protecting Jurkat cells from killing by diphtheria toxin (3H-thymidine incorporation) [ng/mL] |
| --- | --- |
| anti-diphtheria toxin antibody expressed in DG44 cells (antibody, human IgG1, kappa, V domains shown) VH: EVQLVESGGGLVKPGGSLRLSCEASGFIFSDYYMSWIRQAPGKGLEWISYISPSGSTLYYADSMRGRFTISRDNAKNSLYLQMNSLRVEDTAVYFCAREYPTTSKVAITPNWFDLWGQGTLVTVSS VL: ETTLTQSPATLSLSPGERATLSCRASQSVSTFLAWYQQKPGQAPRLLIYDASNRATGIPARFSGSGSGTDFTLTISSLEPEDFAVYYCQQRNIWPSFGGGTKVDIKR | 8 |
| anti-diphtheria toxin antibody expressed in PER.C6 cells (antibody, human IgG1, kappa, V domains shown) VH: EVQLVESGGGLVKPGGSLRLSCEASGFIFSDYYMSWIRQAPGKGLEWISYISPSGSTLYYADSMRGRFTISRDNAKNSLYLQMNSLRVEDTAVYFCAREYPTTSKVAITPNWFDLWGQGTLVTVSS VL: ETTLTQSPATLSLSPGERATLSCRASQSVSTFLAWYQQKPGQAPRLLIYDASNRATGIPARFSGSGSGTDFTLTISSLEPEDFAVYYCQQRNIWPSFGGGTKVDIKR | 11 |

Reference: patent US20110177600A1 (published 2011)
